The values that follow come from publication PMC7618200 (The Biochemical journal, 2025).

Like-named read-outs stand apart in the source and are kept apart here. Ends that are not written are not given here. Peptide text beside a SMILES is read from it. * marks the point of attachment. 5FAM = O=C1OC2(c3ccc(O)cc3Oc3cc(O)ccc32)c2ccc(C(=O)*)cc21; 5Flu = 5-carboxyfluorescein label

Assay [1] concerns the target T1, SPOP^MATH (SPOP MATH domain) (Homo sapiens, UniProt O43791).
T1 construct: bacterially expressed SPOP protein (SPOP^MATH); hexahistidine-MBP (with HRV 3C site) (N, cleaved yes); made in house; host or cells: E. coli BL21 (DE3); tracer peptide synthesized by Peptide Synthetics
As to the kind of experiment: FP competition assay: unlabelled peptide versus Puc-5Flu peptide on SPOP^MATH. The assay is classed as binding. The following applies: read-out: IC50, FP competition, MyD88 peptides of varying length (Figure 1F). As for the experimental part: (§1) Peptides and SPOP^MATH protein were diluted in FP buffer (50 mM HEPES pH 7.5, 100 mM NaCl, 1 mM TCEP, 0.005% Tween-20). Measurements were made in 384-well black flat-bottom low-flange plates (Corning) using 20 μl reaction volumes. Plates were equilibrated at room temperature for 30 minutes before reading. Millipolarization (mP) measurements were taken in a Hidex Sense microplate reader (Hidex) at 25°C, with excitation at 490 nm (20 nm filter), emission at 520 nm (14 nm filter), and a G-factor of 1.
The technical duplicate mP values were averaged, and error bars represent standard deviation. Data were plotted and analyzed using Prism 9 software. […] IC50 values from three independent experiments were averaged and the standard deviation was calculated.

In assay [2] the target is Pdx1 15-mer peptide, fluorescently labeled (SPOP-binding region of pancreas/duodenum homeobox protein 1) (not stated (Figure 5A aligns a Homo sapiens and a Mesocricetus auratus sequence)). The assay can be described thus: fluorescence polarisation; two-fold dilution series of SPOP^MATH mixed with a constant 6-50 nM 5Flu-labeled peptide; 50 mM HEPES pH 7.5, 100 mM NaCl, 1 mM TCEP, 0.005% Tween-20; 25°C; one-site total binding fit; mean of three independent experiments.

The target in assay [3] is T1, SPOP^MATH (SPOP MATH domain). The assay can be described thus: Fluorescence polarization (FP) binding of 5Flu-labelled peptides to SPOP^MATH. The following applies: FP direct binding; 6-50 nM 5Flu-peptide, two-fold dilution series of SPOP^MATH; 50 mM HEPES pH 7.5, 100 mM NaCl, 1 mM TCEP, 0.005% Tween-20; 30 min at room temperature, read at 25°C; one-site total binding fit; mean ± SD of three independent experiments; ~ = estimated; read-out: Kd, binding of fluorescently (5Flu) labeled peptide to SPOP^MATH. As for the experimental part: as §1

Assay [4] concerns the target T2, SPOP MATH domain (SPOP^MATH; residues 28-166) (human, UniProt O43791 28-166).
T2 chain: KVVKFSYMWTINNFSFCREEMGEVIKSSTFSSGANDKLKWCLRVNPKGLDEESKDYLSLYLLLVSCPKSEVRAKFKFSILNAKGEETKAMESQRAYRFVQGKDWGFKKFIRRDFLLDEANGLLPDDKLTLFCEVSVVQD
As to the kind of experiment: FP.

In assay [5] the target is T2, SPOP MATH domain (SPOP^MATH; residues …). The assay can be described thus: FP.
The target in assay [6] is T3, SPOP MATH domain (SPOP^MATH; residues 28-166) (human, UniProt O43791 28-166).
T3 construct: the methods print 28-116; Cleaved with HRV 3C protease; also called speckle-type BTB/POZ protein MATH domain; source: E. coli BL21 (DE3), purified (Ni-NTA, tag cleavage, reverse Ni-NTA, SEC); not shown: His6, N-terminal, cleaved; MBP, N-terminal, cleaved
The assay can be described thus: fluorescence polarisation; competition: two-fold dilution series of unlabeled peptide with 50 nM Puc-5Flu peptide and 5 μM SPOP^MATH; 50 mM HEPES pH 7.5, 100 mM NaCl, 1 mM TCEP, 0.005% Tween-20; 25°C. To be noted: both partners purified.

The target in assay [7] is T3, SPOP MATH domain (SPOP^MATH; residues …). As to the kind of experiment: fluorescence polarisation; two-fold dilution series of SPOP^MATH mixed with a constant 6-50 nM 5Flu-labeled peptide; 50 mM HEPES pH 7.5, 100 mM NaCl, 1 mM TCEP, 0.005% Tween-20; 25°C; one-site total binding fit; mean of three independent experiments. To be noted: both partners purified.
The target in assay [8] is T4, SPOP MATH domain (SPOP^MATH; residues 28-166) (human), O43791.
T4 chain: T2 chain
The assay can be described thus: FP. The following applies: modification not given.

Turning to AEKPLQVAAVAAAVPRT, the IC50 in assay [1] is about 2.11 mM.
“SPOP MATH domain (SPOP^MATH; residues 28-166) (from UniProt O43791 28-166) (domain or fragment)”: the Kd in assay [2] stood at 48 µM.
On to `CC(C)[C@H](NC(=O)c1ccc2c(c1)C(=O)OC21c2ccc(O)cc2Oc2cc(O)ccc21)C(=O)N[C@@H](C)C(=O)N[C@@H](CCC(=O)O)C(=O)N1CCC[C@H]1C(=O)N[C@@H](CCC(=O)O)C(=O)N[C@@H](CCC(N)=O)C(=O)N[C@@H](CC(=O)O)C(=O)N[C@@H](CS)C(=O)N[C@@H](C)C(=O)N[C@H](C(=O)N[C@H](C(=O)N[C@@H](CO)C(=O)NCC(=O)N[C@@H](CCC(=O)O)C(=O)N[C@@H](CCC(=O)O)C(=O)O)[C@@H](C)O)C(C)C` (5FAM-VAEPEQDCAVTSGEE-OH), for which the Kd in assay [3] was about 48 µM.
Consider `CC(C)C[C@H](NC(=O)[C@@H]1CCCN1)C(=O)N[C@@H](CCC(N)=O)C(=O)N[C@H](C(=O)N[C@@H](C)C(=O)N[C@@H](C)C(=O)N[C@H](C(=O)N[C@@H](CC(=O)O)C(=O)N[C@@H](CO)C(=O)N[C@@H](CO)C(=O)N[C@H](C(=O)N1CCC[C@H]1C(=O)N[C@@H](CCCNC(=N)N)C(=O)N[C@H](C(=O)O)[C@@H](C)O)C(C)C)C(C)C)C(C)C`, for which, in assay [1], the IC50 is about 0.518 mM.

B1: SENP7 17-mer peptide (peptide)
chain: DTDNLQSEQLSSSSDGS
Regarding B1, in assay [4], the IC50 was about 2400 µM.

B2: Puc peptide (unlabeled competitor; natural Puc peptide) (peptide)
chain: SRENLACDEVTSTTS
Take B2: inhibition in assay [5] was half-maximal at 98.6 µM (IC50).

B3: SRC-3 17-mer peptide 91NDDDVQKADVSSTGQGV107 (peptide)
peptide: NDDDVQKADVSSTGQGV
notes: also called NCoA-3; source: synthetic peptide
Consider B3, for which, in assay [4], the IC50 is 16.9 µM. Moreover, the binding result in assay [6] is on record as “binds”.

B4: Puc-5Flu peptide (SRENLACDEVTSTTSK-5Flu) (peptide)
peptide: SRENLACDEVTSTTSK(5Flu)
notes: added C-terminal lysine that carries the label; also called ^5Flu-Puc peptide; fluorescently labeled Puc peptide; source: synthetic peptide (Peptide Synthetics, Peptide Protein Research Limited)
Consider B4, for which, in assay [7], the Kd amounted to 1100 nM.

B5: SETD2 17-mer peptide DKGSVQAPEISSNSIKD (printed 363-1379) (peptide)
peptide: DKGSVQAPEISSNSIKD
notes: SET domain-containing protein 2 (SETD2), human; also called SET domain-containing protein 2; source: synthetic peptide
In assay [4], B5 displayed an IC50 of about 699 µM. In assay [6], the binding result is listed as “binds”.

B6: chimeric MyD88-Puc peptide AEKPLQVAAVTSTTS (peptide)
peptide: AEKPLQVAAVTSTTS
notes: Puckered (Puc) SBC; also called chimeric peptide; source: synthetic peptide (Peptide Synthetics, Peptide Protein Research Limited)
Consider B6, for which the binding result in assay [6] is “binds”.

B7: Caprin1 17-mer peptide 426QPEATQVPLVSSTSEGY442 (peptide)
peptide: QPEATQVPLVSSTSEGY
notes: Caprin1, human, residues 426-442; source: synthetic peptide
Turning to B7, half-maximal inhibition in assay [4] (IC50) was put at 2.6 µM. Besides, the binding result in assay [6] is recorded as “binds”.

B8: … (peptide)
chain: AEKPLQVAAVAAAVPRT
As for B8, the IC50 in assay [8] was 2.11 mM.

B9: Caprin1 9-mer peptide (peptide)
chain: LVSSTSEGY
Molecule B9 displayed an IC50 in assay [4] of about 773 µM.
